Assay results reported in the supplement of paper PMC9112550, “Optimization of the antimicrobial peptide Bac7 by deep mutational scanning” (BMC Biology, 2022).

Test system: Escherichia coli TOP10
Assay: shrunken log2 fold change of peptide-encoding DNA abundance (4.5 h post-induction vs induction); higher = less antimicrobial activity (less host growth inhibition)
Conditions: time post-induction: 4.5 h; library: site-saturation at positions 5, 18, 19, 20
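Note: peptides expressed intracellularly from a pBAD plasmid library in pooled LB shake-flask culture, induced with 0.3% L-arabinose, DNA abundance read by NGS, three biological replicates, DESeq2 with apeglm shrinkage.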

RRIRERPPRLPRPRPRPMDNPRP
shrunken log2 fold change: -0.626

RRIRKRPPRLPRPRPRPMYYPRP
shrunken log2 fold change: -0.148

RRIRLRPPRLPRPRPRPQCEPRP
shrunken log2 fold change: -0.153

RRIRFRPPRLPRPRPRPYYMPRP
shrunken log2 fold change: -0.505

RRIRQRPPRLPRPRPRPCRTPRP
shrunken log2 fold change: 0.0557

RRIRVRPPRLPRPRPRPINLPRP
shrunken log2 fold change: -0.304

RRIRPRPPRLPRPRPRPLKIPRP
shrunken log2 fold change: -0.169

RRIRCRPPRLPRPRPRPTEGPRP
shrunken log2 fold change: 0.284

RRIRFRPPRLPRPRPRPIFGPRP
shrunken log2 fold change: 0.449

RRIRLRPPRLPRPRPRPVPDPRP
shrunken log2 fold change: 0.00559

RRIRKRPPRLPRPRPRPETDPRP
shrunken log2 fold change: 0.0366

RRIRGRPPRLPRPRPRPASMPRP
shrunken log2 fold change: 0.548

RRIRKRPPRLPRPRPRPIVTPRP
shrunken log2 fold change: 0.102

RRIRTRPPRLPRPRPRPIQWPRP
shrunken log2 fold change: 0.015

RRIRTRPPRLPRPRPRPHESPRP
shrunken log2 fold change: -0.0124

RRIRLRPPRLPRPRPRPGQFPRP
shrunken log2 fold change: 0.16

RRIRDRPPRLPRPRPRPPTGPRP
shrunken log2 fold change: 0.522

RRIRTRPPRLPRPRPRPQNDPRP
shrunken log2 fold change: -0.749

RRIRRRPPRLPRPRPRPTIGPRP
shrunken log2 fold change: -0.229

RRIRVRPPRLPRPRPRPVWFPRP
shrunken log2 fold change: -0.0288

RRIRDRPPRLPRPRPRPEGIPRP
shrunken log2 fold change: -0.0215

RRIRARPPRLPRPRPRPGCCPRP
shrunken log2 fold change: 0.841

RRIRCRPPRLPRPRPRPNPAPRP
shrunken log2 fold change: 0.101

RRIRNRPPRLPRPRPRPFVPPRP
shrunken log2 fold change: -0.263

RRIRARPPRLPRPRPRPLLHPRP
shrunken log2 fold change: 0.264

RRIRDRPPRLPRPRPRPLTRPRP
shrunken log2 fold change: -0.00589

RRIRQRPPRLPRPRPRPSSPPRP
shrunken log2 fold change: 0.167

RRIRWRPPRLPRPRPRPITNPRP
shrunken log2 fold change: -0.0654

RRIRDRPPRLPRPRPRPPHQPRP
shrunken log2 fold change: -0.022

RRIRRRPPRLPRPRPRPYDTPRP
shrunken log2 fold change: 0.0504

RRIRCRPPRLPRPRPRPKPPPRP
shrunken log2 fold change: 0.931

RRIRSRPPRLPRPRPRPKMLPRP
shrunken log2 fold change: -0.149

RRIRPRPPRLPRPRPRPSYDPRP
shrunken log2 fold change: -0.526

RRIRYRPPRLPRPRPRPHSTPRP
shrunken log2 fold change: -0.181

RRIRPRPPRLPRPRPRPKVQPRP
shrunken log2 fold change: 0.327

RRIRMRPPRLPRPRPRPRGYPRP
shrunken log2 fold change: 0.0597

RRIRLRPPRLPRPRPRPAYPPRP
shrunken log2 fold change: 0.283

RRIRMRPPRLPRPRPRPVLGPRP
shrunken log2 fold change: 0.741

RRIRCRPPRLPRPRPRPHLWPRP
shrunken log2 fold change: 0.129

RRIRARPPRLPRPRPRPKYDPRP
shrunken log2 fold change: -0.293

RRIRHRPPRLPRPRPRPHPRPRP
shrunken log2 fold change: 0.224

RRIRRRPPRLPRPRPRPMPFPRP
shrunken log2 fold change: -0.0201

RRIRVRPPRLPRPRPRPNSYPRP
shrunken log2 fold change: -0.309

RRIRCRPPRLPRPRPRPQGRPRP
shrunken log2 fold change: 0.445

RRIRTRPPRLPRPRPRPDRMPRP
shrunken log2 fold change: -0.0127

RRIRARPPRLPRPRPRPQNIPRP
shrunken log2 fold change: -0.56

RRIRVRPPRLPRPRPRPWHPPRP
shrunken log2 fold change: -0.0956

RRIRARPPRLPRPRPRPEERPRP
shrunken log2 fold change: 1.11

RRIRERPPRLPRPRPRPHYFPRP
shrunken log2 fold change: -0.658

RRIRVRPPRLPRPRPRPLWFPRP
shrunken log2 fold change: 0.125

RRIRFRPPRLPRPRPRPWQDPRP
shrunken log2 fold change: -0.00804

RRIRSRPPRLPRPRPRPCIPPRP
shrunken log2 fold change: -0.417

RRIRQRPPRLPRPRPRPMHRPRP
shrunken log2 fold change: -0.0558

RRIRNRPPRLPRPRPRPHDKPRP
shrunken log2 fold change: -0.313

RRIRPRPPRLPRPRPRPAGAPRP
shrunken log2 fold change: 0.309

RRIRVRPPRLPRPRPRPDKLPRP
shrunken log2 fold change: -0.0511

RRIRRRPPRLPRPRPRPYCFPRP
shrunken log2 fold change: -0.37

RRIRCRPPRLPRPRPRPQMTPRP
shrunken log2 fold change: 0.218

RRIRMRPPRLPRPRPRPVLNPRP
shrunken log2 fold change: -0.232

RRIRMRPPRLPRPRPRPRIQPRP
shrunken log2 fold change: 0.203

RRIRSRPPRLPRPRPRPSQSPRP
shrunken log2 fold change: -0.242

RRIRTRPPRLPRPRPRPQFFPRP
shrunken log2 fold change: -0.11

RRIRLRPPRLPRPRPRPDSPPRP
shrunken log2 fold change: -0.119

RRIRSRPPRLPRPRPRPFVHPRP
shrunken log2 fold change: -0.291

RRIRNRPPRLPRPRPRPLIKPRP
shrunken log2 fold change: -0.651

RRIRERPPRLPRPRPRPELWPRP
shrunken log2 fold change: 0.273

RRIRQRPPRLPRPRPRPDDGPRP
shrunken log2 fold change: -0.171

RRIRERPPRLPRPRPRPDIAPRP
shrunken log2 fold change: -0.0321

RRIRVRPPRLPRPRPRPCSWPRP
shrunken log2 fold change: -0.109

RRIRGRPPRLPRPRPRPMVIPRP
shrunken log2 fold change: 0.329

RRIRWRPPRLPRPRPRPFGQPRP
shrunken log2 fold change: -0.0338

RRIRCRPPRLPRPRPRPYAPPRP
shrunken log2 fold change: -0.412

RRIRVRPPRLPRPRPRPCDIPRP
shrunken log2 fold change: -0.149

RRIRGRPPRLPRPRPRPAKYPRP
shrunken log2 fold change: 0.155

RRIRTRPPRLPRPRPRPATSPRP
shrunken log2 fold change: -0.12

RRIRLRPPRLPRPRPRPMILPRP
shrunken log2 fold change: -0.677

RRIRWRPPRLPRPRPRPESSPRP
shrunken log2 fold change: 0.759

RRIRYRPPRLPRPRPRPGFDPRP
shrunken log2 fold change: -0.205

RRIRPRPPRLPRPRPRPWIFPRP
shrunken log2 fold change: -0.0541

RRIRSRPPRLPRPRPRPGSWPRP
shrunken log2 fold change: 0.605

RRIRDRPPRLPRPRPRPQWIPRP
shrunken log2 fold change: -0.222

RRIRSRPPRLPRPRPRPFPHPRP
shrunken log2 fold change: -0.16

RRIRMRPPRLPRPRPRPTFHPRP
shrunken log2 fold change: -0.00995

RRIRERPPRLPRPRPRPWWVPRP
shrunken log2 fold change: -0.056

RRIRPRPPRLPRPRPRPKGHPRP
shrunken log2 fold change: 0.106

RRIRQRPPRLPRPRPRPTTNPRP
shrunken log2 fold change: -0.143

RRIRDRPPRLPRPRPRPFMTPRP
shrunken log2 fold change: -0.185

RRIRKRPPRLPRPRPRPWPRPRP
shrunken log2 fold change: 0.264

RRIRRRPPRLPRPRPRPSAKPRP
shrunken log2 fold change: 0.0742

RRIRSRPPRLPRPRPRPSKIPRP
shrunken log2 fold change: -0.378

RRIRGRPPRLPRPRPRPVYNPRP
shrunken log2 fold change: 0.0349
